From the DeepSol protein solubility set

assay: soluble on expression in E. coli; label from the status in PepcDB or PDB records

Sequence | soluble on expression in E. coli
MKRGKGEKKATKSRDGSGQVVPLTEPVVTATGMVGTRSWIGGLFTRSNRRQDKAVDYTLSPLQEERLQRLQDRMVVPFDETRPDHQESLKALWNVAFPNVHLTGLVTEQWKEMGWQGPNPSTDFRGCGFIALENLLFSARTYPVNYSLLLKQRGDRAKWEYPFAVAGINISFMLIQMLDLQNNQDERAFDVLYCIAFAMMDAQWLAMHASYMEFNEVLQATRNQLERELSLDDIHRIQDLPAYNLLFQ | soluble
KQQKDGSWLMDALIPLNELKYKLGLTTIEGEESEGFQTLNGFLTWWLGRLPHAGELVDYEGWQFEVLNVKHHRIVQVKVSRETESETTTDTNDGDANP | not soluble
MVVLNPNNWHWVDKNTLPWSKDYLNGKLTSLSTVSSDGKSKIELTQVSSITGDSNVSQRKGKPICYFDLQLSMNVKVTNLDTNKDDEDDDGILADGKLEIPEFMHDESDIPILSQGFDAFDGLVRSEFVPKVVETLLKYQDDLIKEHSKDIQV | soluble
SEESRESPAEHGYYMPAEWDSHAQTWIGWPERQDNWRHNALPAQRVFAGVAKAISKFEPVTVCASPAQWENARKQLPEDIRVVEMSMNDSWFRDSGPTFIVRKRPVKLSSLNRNIAGIDWNFNAWGGANDGCYNDWSHDLLVSRKILALERIPRFQHSMILEGGSIHVDGEGTCLVTEECLLNKNRNPHMSKEQIEEELKKYLGVQSFIWLPRGLYGDEDTNGHIDNMCCFARPGVVLLSWTDDETDPQYERSVEALSVLSNSIDARGRKIQVIKLYIPEPLYMTEEESSGITQDGEAIPRLAGTRLAASYVNFYIANGGIIAPQFGDPIRDKEAIRVLSDTFPHHSVVGIENAREIVLAGGNIHCITQQQPAEPTSVAENGH | soluble
MKVDLFDFHLPEELIAQTPLPDRAASRLMVLDKRTGAIRHETFRNIISYLNPGDCLVLNDTRVMPARLYGEKEETGGTVEVLLLKQLDGDRWETLVKPGKRVKPGTKLTFGEGKLEAVCLDTLEHGGRVLEFSYDGLFYEVLAELGEMPLPPYIKEKLDDPERYQTVYAREIGSAAAPTAGLHFTEELLDAIREKGVHIVFITLHVGLGTFRPVQVDDVEKHDMHAEFYQMSEETAETLNRVREQGGRIIAVGTTSTRTLETIAGKHNGRFVAESGWTDIFIYPGYEFKGIDGLVTNFHLPKSTLIMLVSALAGRENILHAYQVAVKERYRFFSFGDAMLII | soluble
MKVKKWVTQDFPMVEESATVRECLHRMRQYQTNECIVKDREGHFRGVVNKEDLLDLDLDSSVFNKVSLPDFFVHEEDNITHALLLFLEHQEPYLPVVDEEMRLKGAVSLHDFLEALIEALAMDVPGIRFSVLLEDKPGELRKVVDALALSNINILSVITTRSGDGKREVLIKVDAVDEGTLIKLFESLGIKIESIEKEEGF | not soluble
MISGPFLHFDPTVPLQTVMIGHPATSPLSLPSSSSSPTVADPSNIHCRVCERRYDGSQHFGIDICRACAAFFRRSVAVKKTFVCRRGTNKCELNTVSRKTTCQKCRWMRCLLVGLNVDAVVGRRSPDHVKTTSRDESVKKEDEESDTGSEGKSCEDMDVSHPIEQFQQQISFSVHRPIPTIGNPNIYTTRASLINKVLINYNEFTKSRLDVELSLKHMQQDSKVFGSTGIPIVPATREIISEIYQKQFGLLHIFLKNTFDEYAECDVQEQKRICAMFYPVLWEIESCYWTYRNMPVQPEYETLMMCTQTTYIDSKNVRYWLGNTTGLNESDIQAVEARLENLLTKARNLVLEPMHKLIIKEFEFITLLALNIWAPRNHRGCVSEDRAEQVRDALFDDLHYLYCDGLKIDKYSSRMGEMMCLHTEVQNADMSSTIKNILFSDLNAYLYSI | not soluble
MGSDKIHHHHHHMNVRQLEAFQAVMSAGSLTAAAGLLSVSQPAVSQLIAQLEGNCGFSLFDRAGTKMRPTREAEVLHAEVQRMFIGVGRVANVAKALRDQTWGALSIASFPVLTRRMLPNIVTSFCKTRPDVKFSVESMRSRSLVDAVATQQVDLGFSILPGDRPEVDSTHVCTLRGLCILPKGHRLSKRRLIRAKDLDGEAFVALGPQDHSRFQIDKIFEEADVQRRIQVEVGQSETACSFVANGVGVAVVDPISVWNNAGADFVVCAFEPKMEFEIWLIRPKTARPFALIDTFSDYACAELMRLKEEEIDIRQPRG | not soluble
MGSDKIHHHHHHMSPRCSTCGMGQLCLPVGMNQQDLQKMDTLVQERVRVHKGETLYRMGDPLTAVYAIRFGTLKTHVTTEDGRSQITGFHLPGEVVGLDGLGEMQHASDATALEDTEVCVVRLSDLQSLSMDLPSLQQQFLRLMGKEISNDQLMLVTLGSMRAEERLAAFLINLSERLSARGYSSTEFVMRMSREEIGSYLGLKLETVSRLFSRFAEAGLIQIRQRHVKLVDMAGIKQVYSRSC | not soluble
MILNPQKLSVDFGNGITATEPIIPRRYTLTHSDITAKLFLNIGLTYAYNKMTTMRDEVLGEWVKKSQDYSYQVFLHVDGRLGPKTTAIRNKIFRRELPLALEAIRYGDKRFFNAHPYLDNAPITVFFISTNPNFNKIENWGTFSDYNIESYYRNLEHHHHHH | soluble
MRHNIKFKSKGTLKIRNTAQISLWKKCSDSMIADQTYLFINRVQDRRFDEESLRILELSLVAMNVKSFLEVRSRLRDFMRSESVVIFGELTGESMVAKLSVLEFFARAFALLGDMESCLAMRYEALNLRQLKSPSCLWLGVSHSEWTKFAVQSMENGFPSIAGKASENALLSLKKDSLIEPKSEDNSDILDAAEKVRRLRDSAASLTSSHSGIFIYIVSSLKFAVCNRLLTTF | soluble
MDRISQLSDDLLLQILSFIPGKDVVATSLLSKRWQSLWMLVSELEYDDSYHTGDYKSFSQFVYRSLLSNNAPVIKHLHLNLGPDCPAIDIGLWIGFALTRRLRQLKINIRTSSNDASFSLPSSLYTSDTLETLRLINFVLLDVPSSVCLPSLKVLHLKTVDYEDDASLPSLLFGCPNLEELFVERHDQDLEMDVTFVVPSLRRLSMIDKNYGQCDRYVIDVPSLKYLNITDDAVYDVRQIENMPELVEAHVDITQGVTHKFLRALTSVRQLSLCLSLSEKQHESGLCGIETPIGWKLPSSVPECLLFSLEAFEWIGYKGRRGDREVATYVLKNAACLRTAKFSPESTDVGEKYHMLKELASVPTASTSSKLLFD | soluble
MGSDKIHHHHHHMNAPNSQKILFAITKKSQQDGRSFPTIIRVLKRIGSCAPQGVFQMLHWKPEYLRAFVSERSPQKLFDIAVHLAQDLDMDYLGLNIRIQIATQTPRLYLYSNYPSEWIERYQRDDFYKQDPAANLSHSSTMPVLWTDELYKEAPQFREMACLYGLRHGWTQSLHDQQHNESQISVARPNGPIDEVELYDKAGSVQWLCHTLHAVLGEHHLNALCPPQPKMSERELEVLKWSAAGKTAADVASILSLSQSTVNFHIRSVITKTNAANKAGAIAIAALRGWI | not soluble
MKEKEYLFSLDMKVRDYECDLQGVVNNSNYQRYMEHTRHEFWESLGDNFGQMHEKGLDAFVYKVTITFKQSLRSGDRFRSCLTCHKKGPKLIFMQDIIREDGVMAARGEVEVVAVQDGVLTRGEYFDVLMKDILSKTTKLEHHHHHH | soluble
STRHPENYQWENWSLENVATILAHRFPNSYIWVIKCSRMHLHKFSCYDNFVKSNMFGAPEHNTDFGAFKHLYMLLVNAFNLSQNSLSKKSLNVWNKDSIASNCRSSPSHTTNGCQGEKVRTCEKSDESAMSFYPPSLNDASFTLIGFSKGCVVLNQLLFELKEAKKDKNIDAFIKSIRTMYWLDGGHSGGSNTWVTYPEVLKEFAQTGIIVHTHVTPYQVRDPMRSWIGKEHKKFVQILGDLGMQVTSQIHFTKEAPSIENHFRVHEVF | soluble
MALTSFLPAPTQLSQDQLEAEEKARSQRSRQTSLVSSRREPPPYGYRKGWIPRLLEDFGDGGAFPEIHVAQYPLDMGRKKKMSNALAIQVDSEGKIKYDAIARQGQSKDKVIYSKYTDLVPKEVMNADDPDLQRPDEEAIKEITEKTRVALEKSVSQKVAAAMPVRAADKLAPAQYIRYTPSQQGVAFNSGAKQRVIRMVEMQKDPMEPPRFKINKKIPRGPPSPPAPVMHSPSRKMTVKEQQEWKIPPCISNWKNAKGYTIPLDKRLAADGRGLQTVHINENFAKLAEALYIADRKAREAVEMRAQVERKMAQKEKEKHEEKLREMAQKARERRAGIKTHVEKEDGEARERDEIRHDRRKERQHDRNLSRAAPDKRSKLQRNENRDISEVIALGVPNPRTSNEVQYDQRLFNQSKGMDSGFAGGEDEIYNVYDQAWRGGKDMAQSIYRPSKNLDKDMYGDDLEARIKTNRFVPDKEFSGSDRRQRGREGPVQFEEDPFGLDKFLEEAKQHGGSKRPSDSSRPKEHEHEGKKRRKE | soluble
MKEIKIGLIGFGTIGTGVAKLLQANAGLIADKVGAMVTLKKIADLDVTTDRGIELPPGTLTSNVADVLDDPEISVVIELIGGYEPAKSFVLRAINNGKHVVTANKALLALHGEEIYPAAAAKGVQVLFEAAVGGGIPVISAILGNMAANNFTTVLGILNGTCNYILTRMTQEGADFGDVLKTAQELGYAEADPTFDIEGVDTAHKLALLVSLCFGTKVDFNAIHTEGISSISSADIGFARDFGYKIKLLAIGKRTGDTVEARVHPTMIPVNYPLADVDGVFNAIRFTGDFIGPVMFYGRGAGMDPTASAVVGDVIEIARNIIAGVSRRCAPLGYRDEAVTTLALKPMGEIEGKYYLRFSAVDKPGVLAKISGALGKYDISIESMIQKGRSAGESVPIVIMTHEAREKDIRAALEEIDTFELISEKSRFIRIEDNLE | not soluble
MGSDKIHHHHHHMWGFPRAGSSPALGTSRKRRSFLRFFLEENGVKEIELFGTKVLSGTRREFLNAIEERIEKNIKTFVVTMNASILLKAIEDAGYRAIVNSADLVVPDGFGVVWAMKTLTGETTERLPGVEIMKHLCERSKEKGWKVYLLGTKREIVEKAKQVLERSGVRVVGCHDGFFSEKESPKIVEDVNRSSTDLLFVGMGVPRQEEWIYRNFPQLNVKLAMGVGGSIDVVSGKKKRAPEWVQRMNLEWLYRFFQSPLSKRKVPVQVSKFVFFVLREKLKNRN | not soluble
ASKPVEPAKPAEPTKVEFEEKQGKRGVKLGTVAIILSIIFGGGLAYKLHEQQADYQAQIAQLQNQLEKAQASMKQELNQVKEETIEKATTVTHKAEVVLGQQQKSIESLQLAVADVKGRRPNDWLLAEADYLVKLAGRKLFLEHDVESATQLMESADQRIAALNDPSLVKLRKAMANDITKLRTVPLIDRDGLVLRLTALQQQVDKLPLANALLPEAQVVAQHEVSEDISNWQDNLMTSLKDFSENFITFRTRDGNVIPLLSPEQHFYLKENIKAKLETAIKAVYQEQGEIYTTSLTTADKWAMAFFNQDDNAVKEFNKALNQLSQQNIQVEYPAKLESQSQLSDVIRERLRREVTTMTGTGDK | not soluble
MYNGYADVDDLHVYVYCGNTPELRLQELVADVKITIQPENEKSCCIKKFLSLKDNKFESIAMSADFGDFDEMVYNYAIDGKCTIEADITIIKEVGDARAKLRDFGEETRDVSDVVINVQNEKFHVSKMFLAAQSSHFKLLFKNSNDSEIALDGIIPEDFQNFLELLYGEPALTEDSVEGILQIAARFDVSTVIRKGEDFLLQKSEFSPEKKLQMSLKYNLENLKSKCLSEVKSVADIRSVLPKDIKEMDHSVMAELLEKSLGLQKT | not soluble
MIIQCQVKSVQPLATHTYQILLQPEHAVAYQAGQYLMVVMGEKDKRPFSLASSPCRSNGELELHIGAADHSAFAHQVVEKFQQAHLNQTWVEVDVPHGNAALQESERPLLLIAGGTGFSYVRSILDHCLSQGKTQPIYLYWGARDAAQLYALNELQELAKQHAHLQVVPVVEQAQDDWAGKVGNVLQAINNDFASLEAFDIYIAGRFEMAGAAREQFTQNKQARRDRMFADAYAFI | not soluble
